Legend:
NHis-Purβ III = target: T1, NHis-Purβ III (Mus musculus, UniProt O35295 209-303); test: ssDNA-binding ELISA
T1 sequence: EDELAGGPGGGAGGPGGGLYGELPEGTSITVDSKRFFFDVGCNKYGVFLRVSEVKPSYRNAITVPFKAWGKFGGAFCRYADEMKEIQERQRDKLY

NHis-Purβ I-II-III [1] = target: T2, NHis-Purβ I-II-III (Mus musculus, UniProt O35295 41-303); test: ssDNA-binding ELISA
T2 sequence: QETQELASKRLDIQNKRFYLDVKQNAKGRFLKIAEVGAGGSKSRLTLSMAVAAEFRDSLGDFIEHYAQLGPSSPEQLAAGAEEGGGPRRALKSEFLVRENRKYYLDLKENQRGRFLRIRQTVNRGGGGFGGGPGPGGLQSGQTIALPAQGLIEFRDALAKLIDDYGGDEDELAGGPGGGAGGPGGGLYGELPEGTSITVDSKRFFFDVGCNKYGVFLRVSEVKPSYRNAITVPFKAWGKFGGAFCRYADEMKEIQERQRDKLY

NHis-Purβ (full-length) [2] = target: T3, NHis-Purβ (full-length) (Mus musculus, UniProt O35295 1-324); test: ssDNA-binding ELISA
T3 sequence: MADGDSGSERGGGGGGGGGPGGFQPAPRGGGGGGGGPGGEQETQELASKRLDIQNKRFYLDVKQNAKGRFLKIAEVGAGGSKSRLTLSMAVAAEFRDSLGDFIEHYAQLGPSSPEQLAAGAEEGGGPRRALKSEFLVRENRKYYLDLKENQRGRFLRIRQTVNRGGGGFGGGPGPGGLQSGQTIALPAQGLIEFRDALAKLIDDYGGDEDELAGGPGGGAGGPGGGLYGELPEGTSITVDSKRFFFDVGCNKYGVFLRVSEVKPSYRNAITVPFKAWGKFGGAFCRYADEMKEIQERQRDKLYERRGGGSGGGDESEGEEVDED

NHis-Purβ I-II-III [3] = target: T2, NHis-Purβ I-II-III; test: competition
NHis-Purβ (full-length) [4] = target: T3, NHis-Purβ (full-length); test: competition

With GGGAGCAGAACAGAGGAATGCAGTGGAAGAGA (ssDNA) [PE32-bF] as the binder, how does the “apparent K (half saturation)” value (NHis-Purβ III) read?
Its value is 1.8 ± 0.74 nM.

What about the “apparent K (half saturation)” value (NHis-Purβ I-II-III [1]) of the same binder?
The value was 0.22 ± 0.05 nM.

And the “apparent K (half saturation)” value (NHis-Purβ (full-length) [2])?
Its value is 0.16 ± 0.05 nM.

And the IC50 (NHis-Purβ I-II-III [3])?
Its IC50 is 1 ± 0.3 nM.

And the IC50 (NHis-Purβ (full-length) [4])?
Its IC50 is 1.2 ± 0.2 nM.
